Measured values: IntAct's records for PubMed 24144979

B1: Zinc finger protein RFP (Homo sapiens), P14373 (parent)
chain: MASGSVAECLQQETTCPVCLQYFAEPMMLDCGHNICCACLARCWGTAETNVSCPQCRETFPQRHMRPNRHLANVTQLVKQLRTERPSGPGGEMGVCEKHREPLKLYCEEDQMPICVVCDRSREHRGHSVLPLEEAVEGFKEQIQNQLDHLKRVKDLKKRRRAQGEQARAELLSLTQMEREKIVWEFEQLYHSLKEHEYRLLARLEELDLAIYNSINGAITQFSCNISHLSSLIAQLEEKQQQPTRELLQDIGDTLSRAERIRIPEPWITPPDLQEKIHIFAQKCLFLTESLKQFTEKMQSDMEKIQELREAQLYSVDVTLDPDTAYPSLILSDNLRQVRYSYLQQDLPDNPERFNLFPCVLGSPCFIAGRHYWEVEVGDKAKWTIGVCEDSVCRKGGVTSAPQNGFWAVSLWYGKEYWALTSPMTALPLRTPLQRVGIFLDYDAGEVSFYNVTERCHTFTFSHATFCGPVRPYFSLSYSGGKSAAPLIICPMSGIDGFSGHVGNHGHSMETSP

Variants of: B1
Settings: with ubp7_human USP7, Q93009
Sequence of ubp7_human USP7, Q93009 (Q93009 whole entry, looked up): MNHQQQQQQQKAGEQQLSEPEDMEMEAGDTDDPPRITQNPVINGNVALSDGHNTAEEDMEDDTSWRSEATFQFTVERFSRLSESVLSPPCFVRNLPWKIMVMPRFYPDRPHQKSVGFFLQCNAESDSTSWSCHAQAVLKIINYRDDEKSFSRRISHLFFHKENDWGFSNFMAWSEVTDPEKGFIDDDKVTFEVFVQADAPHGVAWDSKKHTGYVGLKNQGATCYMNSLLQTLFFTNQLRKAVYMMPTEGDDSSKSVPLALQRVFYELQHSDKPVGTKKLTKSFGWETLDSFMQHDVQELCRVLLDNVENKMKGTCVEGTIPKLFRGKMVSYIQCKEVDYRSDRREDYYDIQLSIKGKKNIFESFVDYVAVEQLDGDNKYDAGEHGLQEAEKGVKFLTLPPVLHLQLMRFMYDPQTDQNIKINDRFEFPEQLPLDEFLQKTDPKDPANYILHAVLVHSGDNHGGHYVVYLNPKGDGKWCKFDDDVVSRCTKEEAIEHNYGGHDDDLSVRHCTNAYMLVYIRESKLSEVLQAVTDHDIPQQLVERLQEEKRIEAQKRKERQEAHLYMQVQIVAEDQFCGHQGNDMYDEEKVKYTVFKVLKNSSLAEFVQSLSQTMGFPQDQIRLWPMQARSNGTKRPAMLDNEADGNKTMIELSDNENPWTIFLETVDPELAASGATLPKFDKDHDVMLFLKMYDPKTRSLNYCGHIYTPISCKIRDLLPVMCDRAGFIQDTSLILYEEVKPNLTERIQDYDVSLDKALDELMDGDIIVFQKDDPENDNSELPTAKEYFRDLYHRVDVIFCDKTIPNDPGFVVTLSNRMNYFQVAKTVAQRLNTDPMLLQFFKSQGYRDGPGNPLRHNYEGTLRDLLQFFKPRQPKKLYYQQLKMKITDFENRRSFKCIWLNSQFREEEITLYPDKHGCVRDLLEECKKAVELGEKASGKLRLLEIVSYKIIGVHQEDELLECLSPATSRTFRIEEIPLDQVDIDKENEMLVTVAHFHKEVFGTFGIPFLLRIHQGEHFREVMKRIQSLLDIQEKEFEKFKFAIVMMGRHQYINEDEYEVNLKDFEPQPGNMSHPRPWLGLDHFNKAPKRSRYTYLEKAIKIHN

Variant	effect of a mutation on the interaction
MASGSVAECLQQETTCPVCLQYFAEPMMLDCGHNICCACLARCWGTAETNVSCPQCRETFPQRHMRPNRHLANVTQLVRQLRTERPSGPGGEMGVCEKHREPLKLYCEEDQMPICVVCDRSREHRGHSVLPLEEAVEGFKEQIQNQLDHLKRVKDLKKRRRAQGEQARAELLSLTQMEREKIVWEFEQLYHSLKEHEYRLLARLEELDLAIYNSINGAITQFSCNISHLSSLIAQLEEKQQQPTRELLQDIGDTLSRAERIRIPEPWITPPDLQEKIHIFAQKCLFLTESLKQFTEKMQSDMERIQELREAQLYSVDVTLDPDTAYPSLILSDNLRQVRYSYLQQDLPDNPERFNLFPCVLGSPCFIAGRHYWEVEVGDRARWTIGVCEDSVCRKGGVTSAPQNGFWAVSLWYGKEYWALTSPMTALPLRTPLQRVGIFLDYDAGEVSFYNVTERCHTFTFSHATFCGPVRPYFSLSYSGGKSAAPLIICPMSGIDGFSGHVGNHGHSMETSP [K79R;K304R;K380R;K382R]	disrupting interaction strength

Variants of: B1
Settings: with ubp7_human USP7, Q93009
Remark: another data set of the same source

Variant	effect of a mutation on the interaction
MASGSVAECLQQETTCPVCLQYFAEPMMLDCGHNICCACLARCWGTAETNVSCPQCRETFPQRHMRPNRHLANVTQLVRQLRTERPSGPGGEMGVCEKHREPLKLYCEEDQMPICVVCDRSREHRGHSVLPLEEAVEGFKEQIQNQLDHLKRVKDLKKRRRAQGEQARAELLSLTQMEREKIVWEFEQLYHSLKEHEYRLLARLEELDLAIYNSINGAITQFSCNISHLSSLIAQLEEKQQQPTRELLQDIGDTLSRAERIRIPEPWITPPDLQEKIHIFAQKCLFLTESLKQFTEKMQSDMERIQELREAQLYSVDVTLDPDTAYPSLILSDNLRQVRYSYLQQDLPDNPERFNLFPCVLGSPCFIAGRHYWEVEVGDRARWTIGVCEDSVCRKGGVTSAPQNGFWAVSLWYGKEYWALTSPMTALPLRTPLQRVGIFLDYDAGEVSFYNVTERCHTFTFSHATFCGPVRPYFSLSYSGGKSAAPLIICPMSGIDGFSGHVGNHGHSMETSP [K79R;K304R;K380R;K382R]	decreasing interaction strength
MASGSVAECLQQETTCPVCLQYFAEPMMLDCGHNICCACLARCWGTAETNVSCPQCRETFPQRHMRPNRHLANVTQLVKQLRTERPSGPGGEMGVAEKAREPLKLYCEEDQMPICVVCDRSREHRGHSVLPLEEAVEGFKEQIQNQLDHLKRVKDLKKRRRAQGEQARAELLSLTQMEREKIVWEFEQLYHSLKEHEYRLLARLEELDLAIYNSINGAITQFSCNISHLSSLIAQLEEKQQQPTRELLQDIGDTLSRAERIRIPEPWITPPDLQEKIHIFAQKCLFLTESLKQFTEKMQSDMEKIQELREAQLYSVDVTLDPDTAYPSLILSDNLRQVRYSYLQQDLPDNPERFNLFPCVLGSPCFIAGRHYWEVEVGDKAKWTIGVCEDSVCRKGGVTSAPQNGFWAVSLWYGKEYWALTSPMTALPLRTPLQRVGIFLDYDAGEVSFYNVTERCHTFTFSHATFCGPVRPYFSLSYSGGKSAAPLIICPMSGIDGFSGHVGNHGHSMETSP [C96A;H99A]	with no effect
MASGSVAECLQQETTCPVCLQYFAEPMMLDCGHNICCACLARCWGTAETNVSCPQCRETFPQRHMRPNRHLANVTQLVKQLRTERPSGPGGEMGVCEKHREPLKLYCEEDQMPICVVADRSREARGHSVLPLEEAVEGFKEQIQNQLDHLKRVKDLKKRRRAQGEQARAELLSLTQMEREKIVWEFEQLYHSLKEHEYRLLARLEELDLAIYNSINGAITQFSCNISHLSSLIAQLEEKQQQPTRELLQDIGDTLSRAERIRIPEPWITPPDLQEKIHIFAQKCLFLTESLKQFTEKMQSDMEKIQELREAQLYSVDVTLDPDTAYPSLILSDNLRQVRYSYLQQDLPDNPERFNLFPCVLGSPCFIAGRHYWEVEVGDKAKWTIGVCEDSVCRKGGVTSAPQNGFWAVSLWYGKEYWALTSPMTALPLRTPLQRVGIFLDYDAGEVSFYNVTERCHTFTFSHATFCGPVRPYFSLSYSGGKSAAPLIICPMSGIDGFSGHVGNHGHSMETSP [C118A;H124A]	with no effect
